Measured values from patent US20260201030A1 (EVOPOINT BIOSCIENCES, published 2026).
Like-named read-outs stand apart in the source and are kept apart here.

What was measured:
human Claudin18.2 [1] = target: T1, human Claudin18.2 (human, UniProt P56856-2 1-261); experiment: cell-based ELISA on fixed HEK293T-Claudin18.2 (human) cells
T1 construct: whole, on cells; also called CLDN18.2; HEK293T-Claudin18.2 (human)
Method: (§1) The affinity of the anti-human Claudin18.2 murine monoclonal antibodies was evaluated by cell-based ELISA. The experimental procedures were as follows: The day before the experiment, HEK293T-Claudin18.2 (human) cells were plated in a 96-well plate at 5×10⁴ cells/well. On the day of the experiment, the supernatant was removed, the cells in each well were washed once with 300 μL of PBS, and 100 μL of 4% paraformaldehyde was added to each well for fixation at room temperature for 20 min. Paraformaldehyde was then removed, and the cells in each well were washed twice with 300 μL of PBS. 100 μL of 2% BSA (in PBS) was added to each well, and the mixture was blocked at 37° C. for 2 h. After removing the blocking solution, each antibody subjected to gradient dilution (diluted with 2% BSA (in PBS), starting at […], in a 3-fold gradient, for a total of 11 concentration points) was added to the plate at 100 μL/well, and the mixture was incubated at 37° C. for 2 h. The supernatant was removed, and the cells in each well were washed three times with 300 μL of PBST. 100 μL of an anti-mouse IgG HRP secondary antibody (Jackson, cat #115-035-003) in 2% BSA was added to each well, and the mixture was incubated at 37° C. for 1 h. The secondary antibody was then removed, and the cells in each well were washed five times with 300 μL of PBST, followed by the addition of 100 μL of a TMB substrate (Huzhou InnoReagents Co., Ltd.) per well for color development for 5-20 min. The reaction was stopped by adding 50 μL of 2 N HCl to each well, and OD_{450 nm} values were read on a microplate reader (manufacturer: MD, model: SpectraMax). The values obtained were plotted by GraphPad Prism to calculate the EC₅₀ value.

human Claudin18.1 [2] = target: T2, human Claudin18.1 (human, UniProt P56856 1-261); experiment: FACS on HEK293T-Claudin18.1 (human) cells, antibody 50 µg/mL
T2 construct: whole, on cells; also called CLDN18.1; HEK293T-Claudin18.1 (human)
Method: The specificity of the anti-human Claudin18.2 murine monoclonal antibodies was evaluated by flow cytometry (FACS). The experimental procedures were as follows: The adherent cultured HEK293T-Claudin18.1 (human) cells were digested, collected by centrifugation, and washed three times with pre-cooled PBS. The cells were resuspended in 1% BSA (in PBS) and added to a 96-well pointed bottom plate at 3×10⁵ cells/well, with a volume of 50 μL per well. Each test antibody was diluted to 100 μg/mL with […] (in PBS) and added to the cells at 50 μL/well to achieve a final antibody concentration of 50 μg/mL. The mixture was well mixed and incubated at 4° C. for 1 h. The cells were collected by centrifugation, washed three times with pre-cooled PBS, and resuspended in 50 μL of 1% BSA (in PBS). 1 μL of a fluorescent secondary antibody (Biolegend, cat #405308) was added to each well, and the mixture was well mixed and incubated at 4° C. for 0.5 h. The cells were collected by centrifugation, washed three times with pre-cooled PBS, resuspended in 200 μL of PBS, and assayed on a machine (flow cytometer model: Sony-LE-SA3800GA). The APC fluorescence signal value was obtained, and the gate was set using an isotype control antibody as a negative control to obtain the percentage of positively stained cells (positive rate (0%)).

human Claudin18.1 [3] = target: T2, human Claudin18.1; experiment: FACS on HEK293T-Claudin18.1 (human) cells
human Claudin18.2 [4] = target: T1, human Claudin18.2; experiment: cell-based ELISA (OD450) on NUGC4 cells (endogenous human Claudin18.2)
human Claudin18.1 [5] = target: T2, human Claudin18.1; experiment: FACS on HEK293T-Claudin18.1 (human) cells, antibody 50 µg/mL; remark: listed apart in the source
Method: The specificity of the anti-human Claudin18.2 humanized monoclonal antibodies was determined by flow cytometry (FACS). The experimental procedures were as follows: HEK293T-Claudin18.1 (human) cells were digested, collected by centrifugation, washed three times with pre-cooled PBS, resuspended in 1% BSA (in PBS), and added to a 96-well pointed bottom plate at 3×10⁵ cells/well. Each test antibody with a final concentration of 50 μg/mL was added, and the mixture was incubated at 4° C. for 1 h. The cells were washed three times with pre-cooled PBS, and then 1 μL of a fluorescent secondary antibody (APC: Biolegend-410712 or PE: BioLegend-410708) was added to each well. The mixture was incubated at 4° C. for 0.5 h, and the cells were washed three times with pre-cooled PBS, then resuspended, and assayed on a flow cytometer. For reference, anti-human Claudin18.1 positive control antibodies (positive control antibody-1 and positive control antibody-2) were included in the experiment.

human Claudin18.2 [6] = target: T1, human Claudin18.2; experiment: cell-based ELISA on NUGC4 cells (endogenous human Claudin18.2)
human Claudin18.2 [7] = target: T1, human Claudin18.2; experiment: cell-based or functional assay
human Claudin18.2 [8] = target: T1, human Claudin18.2; experiment: cell-based ELISA on HEK293T-Claudin18.2 (human) cells
Method: as §1, with “100 μL of an anti-mouse IgG HRP secondary antibody (Jackson, cat #115-035-003) in 2% BSA was added to each well, and the mixture was incubated at 37° C. for 1 h. The secondary antibody was then removed, and the cells in each well were washed five times with 300 μL of PBST, followed by the addition of 100 μL of a TMB substrate (Huzhou InnoReagents Co., Ltd.) per well for color development for 5-20 min.” left out, “The values obtained were plotted by GraphPad Prism to calculate the EC₅₀ value.” left out
The affinity of the anti-human Claudin18.2 humanized monoclonal antibodies was determined by cell-based ELISA. […]

human Claudin18.2 [9] = target: T1, human Claudin18.2; experiment: FACS on HEK293T-Claudin18.2 (human) cells
Method: The affinity of the anti-human Claudin18.2 humanized antibodies was detected by flow cytometry. The experimental procedures were as follows: The adherent cultured HEK293T-Claudin18.2 (human), NUGC4-Claudin18.2 (human) and NUGC4 cells were digested, collected by centrifugation, and washed three times with pre-cooled PBS. The cells were resuspended in 1% BSA (in PBS) and added to a 96-well pointed bottom plate at 3×10⁵ cells/well, with a volume of 50 μL per well. Each test antibody was diluted with 1% BSA (in PBS) (starting at 100 μg/mL, diluted in a 3-fold gradient, for 10 concentration points). The test antibody subjected to gradient dilution was added to the cells at 50 μL/well, and the mixture was well mixed and incubated at 4° C. for 1 h. The cells were collected by centrifugation, washed three times with pre-cooled PBS, and resuspended in 50 μL of 1% BSA (in PBS). 1 μL of a fluorescent secondary antibody (Biolegend-410712) was added to each well, and the mixture was well mixed and incubated at 4° C. for 0.5 h. The cells were collected by centrifugation, washed three times with pre-cooled PBS, resuspended in 200 μL of PBS, and assayed on a machine.

human Claudin18.2 [10] = target: T1, human Claudin18.2; experiment: cell-based ELISA on L929-Claudin18.2 (human) cells

Row | Binder | EC50 (human Claudin18.2 [1]) | Mean APC fluorescence signal value (human Claudin18.1 [2]) | Positive rate (%) (human Claudin18.1 [2]) | binding result (human Claudin18.1 [3]) | also measured
1 | 1A6G10 (antibody, V domains shown, Murine monoclonal antibody purified from hybridoma supernatant; also called 1A6G11) VH: QVQLKESGGGLVKPGGSLKLSCAASGFTFSSYAMSWVRQTPEKRLEWVAAIHSNGGSTYNSDTMRDRFTISRDHAKNTLYLQMSSLRSEDTALYYCGRQSFGNALDYWGQGTSVTVSS VL: DIQMTQSPSSLTVTAGEKVTLTCKSSQSLLNSGNQKNYLTWYQQKPGQPPKLLIYWASTRESGVPDRFTGSGSGTFFTLTISSVQAEDLAVYFCQNDYVYPFTFGAGTQLELK | 5.02 ng/mL | 111 | 0.16% | no binding (tested: 50 µg/mL) | 
2 | 2D3A11 (antibody, V domains shown, Murine monoclonal antibody purified from hybridoma supernatant) VH: EVQLQQSGPELVKPGASVRMSCKASGYTFTSYVVHWVKQKPGQGLEWIGYINPYNADSKYNERFKGKATLTSDKSSNSAYMELSSLTSEDSAVYYCSRSYYGNSFDVWGAGTTVTVSS VL: DIVMTQSPSSLTVTTGEKVTMSCKSSQSLLNSGNQKNYLTWYQQKPGQSPKLLFFWASTRQSGVPDRFTGSGSGTYFTLTISSVQAEDLAVYYCQNDYYFPFTFGTGTKLEIK | 8.14 ng/mL | 134 | 0.25% | no binding (tested: 50 µg/mL) | 
3 | 25C7A5-HZ2 (antibody, human IgG1, kappa, Humanized IgG1/kappa) heavy: not shown light: EIVLTQSPATLSLSPGERATLSCKASENVKTYVSWYQQKPGQSPRLLIYEASNRYTGVPARFSGSGSATDFTLTISSLEPEDFAVYFCGQTYSFPPTFGQGTKVEIKRTVAAPSVFIFPPSDEQLKSGTASVVCLLNNFYPREAKVQWKVDNALQSGNSQESVTEQDSKDSTYSLSSTLTLSKADYEKHKVYACEVTHQGLSSPVTKSFNRGEC |  |  |  |  | Maximum signal value (human Claudin18.2 [4]): 0.313; Positive rate (%) (human Claudin18.1 [5]): 0.55%; EC50 (human Claudin18.2 [6]): 0.122 µg/mL; ADCC activity EC50 (Jurkat-NFAT-CD16a luciferase reporter, HEK293T-Claudin18.2 (human) target cells) (human Claudin18.2 [7]): 48.8 ng/mL; CDC activity EC50 (guinea pig serum killing, CCK8, HEK293T-Claudin18.2 (human) cells) (human Claudin18.2 [7]): 3280 ng/mL; EC50 (human Claudin18.2 [8]): 0.0112 µg/mL; EC50 (human Claudin18.2 [9]): 0.293 µg/mL; Maximum signal value (human Claudin18.2 [9]): 119000; EC50 (human Claudin18.2 [10]): 0.0148 µg/mL
4 | 8H11A10 (antibody, V domains shown, Murine monoclonal antibody) VH: QVQLKESGPVLVAPSQSLSITCTVSGFSLTNYGVHWVRQPPGKGLEWLGVIWSGGRTNYNSALMSRLSISKDNSKSQVFLKMNSLQTDDTAMYYCAKRDGIYGDYWGQGTSVTVSS VL: DIVETQSPSSLTVTAGEKVTMSCKSSQSLLNSGNQKNYLTWYQQKPGQSPKLLIYWASTRESGVPDRFTGSGFGTDFTLTISSVQAEDLAVYYCQNDYIYPLTFGAGTKLELK | 12.3 ng/mL | 175 | 1.21% | no binding (tested: 50 µg/mL) | 
5 | 23F2F2 (antibody, V domains shown, Murine monoclonal antibody purified from hybridoma supernatant) VH: QVQLKESGGGLVQPGGSMKLSCAASGFTFSDAWMNWVRQSPEKGLEWVAEIRNKADYHATHYVESVTGRFTISRDDSKSSVYLQMNRLRAEDTGIYYCTRNYGSRFDYWGQGTTLTVSS VL: DIVETQSPSSLTVTAGEKVTMSCKSSQSLLNSGNQRNYLTWYQQKPGHPPKLLIYWASTRESGVPDRFTGSGSGTDFTLTVTSVQAEDLAVYYCQNDYFYPLAFGTGTKLELK | 6.02 ng/mL | 222 | 2.16% | no binding (tested: 50 µg/mL) | 

Now from value to binder, other results behind:

Row | EC50 (human Claudin18.2 [1]) | Mean APC fluorescence signal value (human Claudin18.1 [2]) | Positive rate (%) (human Claudin18.1 [2]) | binding result (human Claudin18.1 [3]) | Binder | also measured
6 | 7.38 ng/mL | 160 | 0.98% | no binding (tested: 50 µg/mL) | 40G11H2 (antibody, V domains shown, Murine monoclonal antibody) VH: EVQLQQSGAELARPGASVKLSCKASGYTFTSYGIRWVKQRTGQGLEWIGEIYPRGGNTYYDEKFKGKATLTADKSSSTAYMGLRSLTSEDSAVYFCARADYGNSFAYWGQGTLVTVSA VL: DIVMTQSPSSLTVTAREKVTMSCKSSQSLLNSGNQKNYLTWYHQKPGQPPKLLIYWASTRESGVPDRFTGSGSGTDFTLTISSVQAEDLAVYFCQNAYFYPFTFGTGTKLEIK | 
7 | 2.4 ng/mL | 411 | 0% |  | 32F7A6 (antibody, V domains shown, Murine monoclonal antibody purified from hybridoma supernatant) VH: QIQLVQSGPELRKPGETVKISCKASGYTFTAYTMGWVKQAPGKGLEWMAWINTYSGVPTYAADFKGRFAFSLETSASTAYLLINNLKNEDTATYFCARGVRGNSMDYWGQGTSVTVSS VL: DIVETQSPSSLTVTVGERVTLSCKSSQSLLNSGNQRNYLTWSQQKPGQPPKLLIYWASTRESGVPNRFTGGGSGTYFTLTISSVQVEDLAVYYCQNTYSFPFTFGTGTKLEIK | 
8 | 10.5 ng/mL | 123 | 0.87% | no binding (tested: 50 µg/mL) | 25C7A5 (antibody, V domains shown, Murine monoclonal antibody purified from hybridoma supernatant) VH: EVQLQQPGAELVKPGTSVKLSCKASGYTFTNYWLHWVRQRPGQGLEWIGMMHPISGSSNNNERFKSKATLTVDKSSTTAYMQLSRMTSEDSAVYYCARGLLSAMDYWGQGTSVTVSS VL: CIVLTQSPKSMSMSVGERVTLSCKASENVKTYVSWYQQRPEQSPKLLIYEASNRYTGVPDRFTGSGSATVFTLTISSVQTEDLANYFCGQTYSFPPTFGSGTKLEIK | 
